Source: paper PMC10130221

Legend:
Assay in all cases: filter binding
[1] = tested on: TrmB R155A (Escherichia coli); settings: max. about 30% bound, none (in vitro transcribed), becomes m7G46 during incubation with SAM, TAKEM4: 50 mM Tris-HCl pH 7.5, 70 mM NH4Cl, 30 mM KCl, 1 mM EDTA, 4 mM MgCl2, filter binding 20 nM tRNA, 10 min (temperature not given in the material) …
[2] = tested on: TrmB R26A (Escherichia coli); settings: none (in vitro transcribed), becomes m7G46 during incubation with SAM, TAKEM4: 50 mM Tris-HCl pH 7.5, 70 mM NH4Cl, 30 mM KCl, 1 mM EDTA, 4 mM MgCl2, filter binding 20 nM tRNA, 10 min (temperature not given in the material) …
[3] = tested on: TrmB T217A (Escherichia coli); settings: none (in vitro transcribed), becomes m7G46 during incubation with SAM, TAKEM4: 50 mM Tris-HCl pH 7.5, 70 mM NH4Cl, 30 mM KCl, 1 mM EDTA, 4 mM MgCl2, filter binding 20 nM tRNA, 10 min (temperature not given in the material) …
[4] = tested on: TrmB WT (Escherichia coli); settings: none (in vitro transcribed), becomes m7G46 during incubation with SAM, TAKEM4: 50 mM Tris-HCl pH 7.5, 70 mM NH4Cl, 30 mM KCl, 1 mM EDTA, 4 mM MgCl2, filter binding 20 nM tRNA, 10 min (temperature not given in the material) …
[5] = tested on: TrmB D144A (Escherichia coli); settings: none (in vitro transcribed), becomes m7G46 during incubation with SAM, TAKEM4: 50 mM Tris-HCl pH 7.5, 70 mM NH4Cl, 30 mM KCl, 1 mM EDTA, 4 mM MgCl2, filter binding 20 nM tRNA, 10 min (temperature not given in the material) …

[3H]tRNAPhe (unmodified transcript) was tested, and the Kd ([1]; 50 uM SAM) was 5.8 µM, the Kd ([1]; no SAM) was 10 µM and the Kd ([2]; 50 uM SAM) was 5.1 µM. For the same substance, the Kd ([2]; no SAM, max. about 20% bound) was 6.4 µM, the Kd ([3]; 50 uM SAM) was 2.6 µM and the Kd ([3]; no SAM) was 5.4 µM. For the same substance, the Kd ([4]; 50 uM SAM, tRNA becomes m7G46 product in 10 min) was 2.1 µM, the Kd ([4]; no SAM) was 6.6 µM and the Kd ([5]; 50 uM SAM) was 0.8 µM. For the same substance, the Kd ([5]; no SAM) was 2.5 µM.
